Test results: patent US6982321

Key:
[1] = target: hen eggwhite lysozyme (hen) (UniProt P00698); test: fluorescence titration with lysozyme, 50 nM antibody, 25°
[2] = target: hen eggwhite lysozyme (hen) (UniProt P00698); test: fluorescence quenching titration with hen eggwhite lysozyme
[3] = target: partially purified Campath-1 antigen (obtained from a glycolipid extract from human spleen) (human) (UniProt P31358); test: direct binding assay on coated partially purified Campath-1 antigen, biotin anti-rat IgG2b detection; concentration at 50% maximal binding
[4] = target: Campath-1 antigen on human lymphocytes (human) (UniProt P31358); test: cell-based or functional assay
[5] = target: partially purified Campath-1 antigen (obtained from a glycolipid extract from human spleen) (human) (UniProt P31358); test: direct binding assay on coated partially purified Campath-1 antigen; concentration at 50% binding

hen eggwhite lysozyme (hen), sequence (P00698 19-147 limits assumed): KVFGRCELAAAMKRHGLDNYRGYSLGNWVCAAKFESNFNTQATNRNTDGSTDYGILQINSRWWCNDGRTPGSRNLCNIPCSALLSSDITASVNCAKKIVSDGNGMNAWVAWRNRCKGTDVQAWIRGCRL
RaVHCAMP-RaIgG2B, sequence (P20761 whole entry): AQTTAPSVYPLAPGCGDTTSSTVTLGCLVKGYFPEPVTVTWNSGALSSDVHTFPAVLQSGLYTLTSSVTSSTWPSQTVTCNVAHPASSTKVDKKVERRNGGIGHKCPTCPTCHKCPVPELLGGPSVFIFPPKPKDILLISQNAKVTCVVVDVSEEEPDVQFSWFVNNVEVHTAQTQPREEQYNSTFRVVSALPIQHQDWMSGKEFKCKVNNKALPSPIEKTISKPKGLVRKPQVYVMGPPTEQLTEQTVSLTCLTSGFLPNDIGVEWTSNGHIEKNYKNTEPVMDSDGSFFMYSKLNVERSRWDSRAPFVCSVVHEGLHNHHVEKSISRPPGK
HuVHCAMP(Ser27 to Phe, Ser30 to Thr)-RaIgG2B, sequence (P20761 whole entry): as above
HuVHCAMP(Ser27 to Phe)-RaIgG2B, sequence (P20761 whole entry): as above
HuVHCAMP-RaIgG2B, sequence (P20761 whole entry): as above

| Kd [2] [nM] | EC50 [3] [µg/mL] | Concentration of antibody in ug/ml at 50% binding or lysis: complement lysis [4] [µg/mL] | Substance | also measured |
| --- | --- | --- | --- | --- |
|  | 1.8 | 16.3 | HuVHCAMP(Ser27 to Phe)-RaIgG2B (from UniProt P20761 1-333) (antibody) |  |
|  | 2 | 17.6 | HuVHCAMP(Ser27 to Phe, Ser30 to Thr)-RaIgG2B (from UniProt P20761 1-333) (antibody) |  |
|  | 0.7 | 2.1 | RaVHCAMP-RaIgG2B (from UniProt P20761 1-333) (antibody) | EC50 [5]: 1.01 µg/mL |

Further lines, the substance ahead of its results:

| Substance | Kd [2] [nM] | EC50 [3] [µg/mL] | Concentration of antibody in ug/ml at 50% binding or lysis: complement lysis [4] [µg/mL] | also measured |
| --- | --- | --- | --- | --- |
| D1.3 (H2K2) (antibody) | 14.4 |  |  | equivalence point (binding sites per mole) (binding sites per mole) [1]: 1.8 |
| D1.3 (H2K2) (reassociated) (antibody) | 11.4 |  |  |  |
| HuVHCAMP-RaIgG2B (from UniProt P20761 1-333) (antibody) |  | 27.3 |  |  |
| recombinant D1.3 (H*2K2) (reassociated) (antibody) | 9.2 |  |  |  |
